Laboratory results taken from publication PMC6162332, “A unique intracellular tyrosine in neuroligin-1 regulates AMPA receptor recruitment during synapse differentiation and potentiation” (Nature Communications, 2018).

B1: GST-Nlg1-WT (GST fused to the intracellular domain of neuroligin-1) (domain or fragment, mouse, UniProt Q99K10 719-843, looked up)
chain: YKKDKRRHDVHRRCSPQRTTTNDLTHAPEEEIMSLQMKHTDLDHECESIHPHEVVLRTACPPDYTLAMRRSPDDIPLMTPNTITMIPNTIPGIQPLHTFNTFTGGQNNTLPHPHPHPHSHSTTRV
notes: neuroligin-1 (Nlg1), mouse, cytoplasmic tail amplified from HA-Nlg1 (with splice inserts A and B) and inserted in pGex-4T1 at XhoI/NotI; source: E. coli BL21 (DE3)-RIPL, purified (Glutathione Sepharose 4 Fast Flow, dialysed against PBS)
B2: GST-Nlg1-Y782A (domain or fragment, mouse, UniProt Q99K10 719-843, looked up)
chain: YKKDKRRHDVHRRCSPQRTTTNDLTHAPEEEIMSLQMKHTDLDHECESIHPHEVVLRTACPPDATLAMRRSPDDIPLMTPNTITMIPNTIPGIQPLHTFNTFTGGQNNTLPHPHPHPHSHSTTRV
notes: neuroligin-1 (Nlg1), mouse, cytoplasmic tail amplified from HA-Nlg1-Y782A and inserted in pGex-4T1 at XhoI/NotI; Same limits as m1 (same primers); source: E. coli BL21 (DE3)-RIPL, purified (Glutathione Sepharose 4 Fast Flow, dialysed against PBS)
B3: GST-Nlg1-Y782F (domain or fragment, mouse, UniProt Q99K10 719-843, looked up)
chain: YKKDKRRHDVHRRCSPQRTTTNDLTHAPEEEIMSLQMKHTDLDHECESIHPHEVVLRTACPPDFTLAMRRSPDDIPLMTPNTITMIPNTIPGIQPLHTFNTFTGGQNNTLPHPHPHPHSHSTTRV
notes: neuroligin-1 (Nlg1), mouse, cytoplasmic tail amplified from HA-Nlg1-Y782F and inserted in pGex-4T1 at XhoI/NotI; Same limits as m1 (same primers); source: E. coli BL21 (DE3)-RIPL, purified (Glutathione Sepharose 4 Fast Flow, dialysed against PBS)

biological target: T1, PSD-95-mCherry (rat, UniProt P31016 1-724); assay: pull-down; GST or GST-Nlg1 proteins (0.64 nmol/200 µl) on glutathione magnetic beads in PBS pH 7.4, 0.01% BSA, 0.01% Tween-20; incubated 20 min at RT with purified PSD-95-mCherry (0.01 nmol/100 µL); eluted with glutathione; anti-PSD-95 immunoblot; settings: both partners purified
T1 construct: PSD-95, rat; the rat PSD-95 gene subcloned in frame with an N-terminal mCherry into pET-24a(+) between EcoRI and XhoI; the methods give no limits; source: E. coli BL21-CodonPlus (DE3)-RIPL, purified (Ni-NTA, dialysed into PBS with 0.01% Tween-20); not shown: mCherry, N-terminal, kept
T1 sequence (P31016 whole entry): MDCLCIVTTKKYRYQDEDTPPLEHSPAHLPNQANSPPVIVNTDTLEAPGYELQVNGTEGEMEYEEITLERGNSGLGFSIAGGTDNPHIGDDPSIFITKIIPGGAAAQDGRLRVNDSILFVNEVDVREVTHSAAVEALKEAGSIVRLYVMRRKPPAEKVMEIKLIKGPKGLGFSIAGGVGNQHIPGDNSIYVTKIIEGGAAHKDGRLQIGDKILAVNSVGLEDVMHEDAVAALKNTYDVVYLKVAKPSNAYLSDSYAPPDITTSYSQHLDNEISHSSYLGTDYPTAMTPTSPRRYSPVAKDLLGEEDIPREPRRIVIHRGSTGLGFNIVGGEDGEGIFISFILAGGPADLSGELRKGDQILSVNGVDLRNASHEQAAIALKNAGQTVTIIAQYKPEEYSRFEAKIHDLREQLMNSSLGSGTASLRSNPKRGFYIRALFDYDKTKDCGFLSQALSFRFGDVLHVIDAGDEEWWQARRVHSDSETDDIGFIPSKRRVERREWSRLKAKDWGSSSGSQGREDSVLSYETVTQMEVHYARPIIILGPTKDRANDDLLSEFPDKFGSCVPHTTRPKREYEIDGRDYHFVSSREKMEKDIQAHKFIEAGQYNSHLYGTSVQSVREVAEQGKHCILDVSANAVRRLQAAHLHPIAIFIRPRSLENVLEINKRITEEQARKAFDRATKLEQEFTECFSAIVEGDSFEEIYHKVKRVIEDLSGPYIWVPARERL

Binding result, binds:
B1
B2
B3
